Source: US20260234222A1

Molecular target: SARS-CoV-2 BQ.1 Spike antigen (SARS-CoV-2 Omicron BQ.1)
Assay: cell-based or functional assay

B1: Parental mAb 2 (antibody, V domains shown)
VH: QMQLMQSGAEVKKPGASVTVSCKASGDTFSDYRIHWVRQAPGQGLEWMGRMNPKSGDTNFAQKFQGRVTMTRDMSINTAYMTLSGLTFDDTALYYCASLLIVGGFDPLDDFEVWGQGTMVTISS
VL: QSALTQPPSASGSPGQSVTISCSGTSSDVGGYNFVSWYQHHPGKAPKILIYEVTKRPSGVPDRFSGSKSGNTASLTVSGLQAEDEADYYCSSYGGTNNLLFGGGTKLTVL
Pseudovirion neutralization IC50: 10.1 µg/mL
